Measured values as given in the supplement of paper PMC9170038.

Test system: MS2 coat protein
Assay: apparent KD of MS2 coat protein; designed switch direction (-1 OFF switch, 1 ON switch): -1; higher = weaker reporter binding
How it was run: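 The apparent KD reported per design is the median over clusters of curve fits to normalised cluster fluorescence. The RNA switches were transcribed on Illumina chips by stalled E. coli RNA polymerase. SNAP-549-labelled MS2 coat protein was titrated from 0.7 or 1.5 nM, doubling up to 3 µM, in Tris-HCl pH 7.5 buffer containing KCl, MgCl2, BSA, DTT, tRNA and Tween-20, with no input, 200 uM small-molecule ligand, or an oligonucleotide input.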

[1] = input ligand: microRNA oligo, concentration not stated
[2] = Eterna round: R95, input ligand: microRNA oligo, concentration not stated
[3] = Eterna round: R95, input ligand: FMN 200 uM
[4] = Eterna round: R95, input ligand: none

| Sequence | apparent KD of MS2 coat protein (input ligand: FMN 200 uM) | apparent KD of MS2 coat protein [1] | apparent KD of MS2 coat protein (input ligand: none) | apparent KD of MS2 coat protein [2] | apparent KD of MS2 coat protein [3] | apparent KD of MS2 coat protein [4] |
| --- | --- | --- | --- | --- | --- | --- |
| GUAAAGGGUGUCCUUAAAACAUGAGGAUCACCCAUGUGGACUAAGGAUAUCCAAAAUAAAGAUAAGGAGAAGGUAGUGGAAAGA [Usarqudi] (Eterna round: R96, puzzle: Exclusion NG 3) | 0.0193 µM | 0.0199 µM | 0.014 µM |  |  |  |
| UACCUACAUGAGGAUCACCCAUGUCAGGAUAUCCGUGUGAACGAGUCGUUACACAGGCGGAGAAGGGACAUCGG [Eternabot (L1) Solution 65] (Eterna round: R97, puzzle: Exclusion 1) | 0.0945 µM |  | 0.0542 µM |  |  |  |
| ACUGUAGAAGGAUAUGCUUCGACUCACAUGAGGAUCACCCAUGUCUUCGUGCAGUCGUCUGCAGAAGGUCUCCAGU [EX5 C.7] (Eterna round: R97, puzzle: Exclusion 5) | 1.05 µM |  | 0.956 µM |  |  |  |
| GUUUUCAGACGGAGAUCCUACAUGAGGAUCACCCAUGUCUCUCUUGCUAAUUGCUCGUCUUAUUCUCCUCUGUUCUC [Elimod 37 - Jieux - Sensor, turn-off variant 1] (Eterna round: R97, puzzle: Sensor, turn-off variant 1) | 0.0808 µM |  | 0.1 µM |  |  |  |
| UGGGUCACAGGAUAUACAUGAGGAUCACCCAUGUCGUAUUUCGUGGCGGAGAGCUCGAGUAGAAGGGUGCAUCC [Malarala] (puzzle: Exclusion 3) |  |  |  | 0.0963 µM |  |  |
| UGUUGUUACGCAGGAUAUGAGGAUCACCCAUAGAAGGAUAACGAAAGUGAAGGUCUGAGGAUUACCCAGAAGGGCGGGUUAACA [pwkr exNG2 2xF5 2xFMN.2] (Eterna round: R96, puzzle: Exclusion NG 2) | 0.294 µM | 0.0742 µM | 0.092 µM |  |  |  |
| UGUCAGAUGGUAGGAUAUCCCUAUCGCGUGUCCCUUUCCUAACAUGAGGAUCACCCAUGUCGGUGGGAGAAGGGCCGUAUGGUG [salish99_ExNG02_R04_036] (Eterna round: R96, puzzle: Exclusion NG 2) | 0.0157 µM | 0.0136 µM | 0.0154 µM |  |  |  |
| UAUAUAUAGUAAGGAUAUGUAAUUAUUUUGUAAACAGAAGGUACUGACAUGAGGAUCACCCAUGUUUUAGUGUGGGCAUGUAGA [JMF's solution 44] (Eterna round: R96, puzzle: Exclusion NG 1) |  | 0.0845 µM |  |  |  |  |
| UUAGAUAGGUCAGGAUAUCGAUGAUUGAAUAGUAUGAUUUACAUGAGGAUCACCCAUGUUUUGUACGAGAAGGGACGUUAGAUU [JR_ExcNG2_Sub020] (Eterna round: R96, puzzle: Exclusion NG 2) | 0.0269 µM | 0.0226 µM | 0.0285 µM |  |  |  |
| GGUGGACAUGAGGAUCACCCAUGUGAGGAUAUCGGCUGGUACGUGUUGGCUGGCAUCUCGAGAAGGCACAUCGU [Exclusion 1 V64] (puzzle: Exclusion 1) |  |  |  | 0.0448 µM |  |  |
| CUCUAGUCAGGAUAUUAGUUGCCACCUGGACACAGGCGGCAUGAGAAGGGACUUGAGGAUCACCCAAGUAAAAG [Quaesbe] (Eterna round: R97, puzzle: Exclusion 4) | 0.384 µM |  | 0.758 µM |  |  |  |
| CGUCCGGCUUCCCUUCAAGACAUGAGGAUCACCCAUGUUUUUGUUUUUGCGAGCUUUUUGCUUUUUGCUCGUCUUGU [Even Better Attempt 2] (puzzle: Sensor v3, turn-off variant 1) |  |  |  | 0.013 µM | 0.0203 µM | 0.0187 µM |
| CCAGCAAAUGUAAGGAUAUGCUGGUCCUUGGAUCAGCAGAAGGUACAUGAGGAUCACCCAUGUAGGUAAGCUGG [Eli bmx4 4.63] (Eterna round: R97, puzzle: Brourd's mod of Exclusion 4) | 0.118 µM |  | 0.0235 µM |  |  |  |
| CGUAGUCUUCGGACUACGAACAUGAGGAUCACCCAUGUAUAGAGCAGAUCUUCAUGCAAGCUUUUUGCUCGUCUUAU [Sensor v3 - turn-off variant 1 - 48] (puzzle: Sensor v3, turn-off variant 1) |  |  |  | 0.0108 µM | 0.082 µM | 0.0866 µM |
| ACAUGUUAUGUAGGAUAUUGGACACAUGAGGAUCACCCAUGUACCCGGAGGCUUUACUAUGAGUUCGAGAAGGGUAUGAACAUG [Ex NG2 #68] (Eterna round: R96, puzzle: Exclusion NG 2) | 0.0398 µM | 0.0211 µM | 0.0294 µM |  |  |  |
| GGUUGUUGUUUCCGUUCUUACAUGAGGAUCACCCAUGUUUCUUGUCGUGCUCGCGUUGCUCGUCUGUCUGUCUGUUG [salish99_TOv1_r3_072] (puzzle: Sensor v3, turn-off variant 1) |  |  |  | 0.0362 µM | 0.0557 µM | 0.063 µM |
| GCAUGCUCCGAGGAUAUCGAAGCUAAUUAUGCACGAGAAGGCGGAACAUGAGGAUCACCCAUGUGAUGCCAAUG [Qutequen] (Eterna round: R97, puzzle: Exclusion 6) | 0.0519 µM |  | 0.0216 µM |  |  |  |

| Sequence | apparent KD of MS2 coat protein (input ligand: FMN 200 uM) | apparent KD of MS2 coat protein [1] | apparent KD of MS2 coat protein (input ligand: none) | apparent KD of MS2 coat protein [2] | apparent KD of MS2 coat protein [3] | apparent KD of MS2 coat protein [4] |
| --- | --- | --- | --- | --- | --- | --- |
| UUUAAUUUUUUUUUUUUACAAGCUUUUUGCUCGUCUUAUACAUGAGGAUCACCCAUGUGGGUAGGAGAUAAAUUAUC [JMF 16] (puzzle: Sensor v3, turn-off variant 2) |  |  |  | 0.0454 µM | 0.0321 µM | 0.057 µM |
| UAUUAGGGAGGAUAUCGCAGUUGCAACAUGAGGAUCACCCAUGUGAACAGCCUCACCAAUCGAGAAGGCCUGAGUG [Eternabot (L2) Solution 59] (Eterna round: R97, puzzle: Exclusion 5) | 0.071 µM |  | 0.0755 µM |  |  |  |
| ACAUGUUAUGUAGGAUAUUAUACACAUGAGGAUCACCCAUGUAACCGGAGGCUUUACUAUGAGUAUGAGAAGGGUAUGAACAUG [Ex NG2 #65] (Eterna round: R96, puzzle: Exclusion NG 2) |  | 0.0642 µM |  |  |  |  |
| CGUAGCAUUGUGAGGAUAUCUAGAGCUUCGGCUCUAGAGAAGGCACAUGAGGAUCACCCAUGUGAUUAGCUACG [BmEx4/9-C1] (Eterna round: R97, puzzle: Brourd's mod of Exclusion 4) | 1.76 µM |  | 0.111 µM |  |  |  |
| GAUUAUGCGAGCUUUAGGGACAUGAGGAUCACCCAUGUUCGUCUUAUUGGUCUAGGUACACUGACAUACCUAAAUCU [JMF 68] (puzzle: Sensor v3, turn-off variant 1) |  |  |  | 0.0372 µM | 0.0227 µM | 0.023 µM |
| GAUCCUCGGGUUAGGAUAUCGAGGAUGUACGUCAGCGAGAAGGAACAUGAGGAUCACCCAUGUUGCUUAGCAAG [BmEX4 A.18] (Eterna round: R97, puzzle: Brourd's mod of Exclusion 4) | 0.0211 µM |  | 0.0195 µM |  |  |  |
| ACAGGUGCAGGAUAUACAUGAGGAUCACCCAUGUAGAUCAACCAGCGAUAGCUGGAAUGUAGAAGGGCACCUGU [E3/5-D1] (Eterna round: R97, puzzle: Exclusion 3) | 0.0944 µM |  | 0.0185 µM |  |  |  |
| GAUGGACAUGAGGAUCACCCAUGUAAGGAUAUUGAUUGUGGCUAUAAAUAGUUACGGUCAAGAAGGUACUCGUC [-21.6, -18.6 kcal, A 31%] (Eterna round: R97, puzzle: Exclusion 1) | 0.128 µM |  | 0.161 µM |  |  |  |
| GAGUGACAUGAGGAUCACCCAUGUGAGGAUAUCGGACGGACCAAAUUAACAAUAAAUGCGAGAAGGCGCAUCGG [Exclusion 1 V16] (puzzle: Exclusion 1) |  |  |  | 0.0433 µM | 0.0467 µM | 0.0543 µM |
| AUAGGAGGAGGAUAUACAUGAGGAUCACCCAUGUGAUCGCCGUAAAAUGCAGUUAGACGUAGAAGGUCUCCCGG [Eternabot (L2) Solution 77] (Eterna round: R97, puzzle: Exclusion 3) | 0.0368 µM |  | 0.0347 µM |  |  |  |
| AAUCCACAUGAGGAUCACCCAUGUGAGGAUAUGAUACUAUGUACUUCGGUACAUAGUAUCAGAAGGCACAUAAA [Ex1-3: 51] (puzzle: Exclusion 1) |  |  |  | 0.0284 µM |  |  |
| CUGAGGUAGCGGUCCUAUUACAUGAGGAUCACCCAUGUACCUUGCUUCGAGCUUUUAGCUCGUCUUAUGAUUCUCGG [Mat - Sensor v3 - turn-off var 1 - JL Mod - D38] (puzzle: Sensor v3, turn-off variant 1) |  |  |  | 0.447 µM | 0.277 µM | 0.381 µM |
| CUAUGUGCGAGAGGAUAUCGUGUACAAAGUACACGAGAAGGCUUCACAUGAGGAUCACCCAUGUACCGAGGUGAAACACCUUGA [Omei Exc(NG)1 Bv6] (Eterna round: R96, puzzle: Exclusion NG 1) | 0.744 µM | 0.261 µM | 0.51 µM |  |  |  |
| AGUACUAACACGAUAGUGUUAGUACUAUAAGCUUGUGUUACAUGAGGAUCACCCAUGUCCUCAUAAGCUCGUCUUAU [Mat - Sensor v3 - Turn-off var 2 - D78] (puzzle: Sensor v3, turn-off variant 2) |  |  |  | 0.118 µM | 0.0956 µM | 0.101 µM |
| AAAACGUGAGCAGGAUAUGCAAUAAGAUCAGGUCUUCACAUGAGGAUCACCCAUGUAUAAGGGACGCAGAAGGGCUGAUAAAAG [Aesedat] (Eterna round: R96, puzzle: Exclusion NG 2) | 0.0984 µM | 0.0496 µM | 0.0609 µM |  |  |  |
| UGGGUUCUCCAUAGAAGUAACAUGAGGAUCACCCAUGUAGGGCAAGUUUUUUGCUCGUCAUAGGUUGAGGGAUUGGA [JR_SV3TOV1_Sub017] (puzzle: Sensor v3, turn-off variant 1) |  |  |  | 0.441 µM | 0.968 µM | 0.634 µM |
